{"source": "patent US20250034250A1", "about": "(published 2025)", "key": {"[1]": {"molecular_target": "T1, human full-length CD33 (CD33^FL) expressed on cells (human, UniProt P20138 18-364)", "T1 construct": "Expressed on engineered REH (or RS4;11) sublines", "T1 sequence (P20138 18-364 limits assumed)": "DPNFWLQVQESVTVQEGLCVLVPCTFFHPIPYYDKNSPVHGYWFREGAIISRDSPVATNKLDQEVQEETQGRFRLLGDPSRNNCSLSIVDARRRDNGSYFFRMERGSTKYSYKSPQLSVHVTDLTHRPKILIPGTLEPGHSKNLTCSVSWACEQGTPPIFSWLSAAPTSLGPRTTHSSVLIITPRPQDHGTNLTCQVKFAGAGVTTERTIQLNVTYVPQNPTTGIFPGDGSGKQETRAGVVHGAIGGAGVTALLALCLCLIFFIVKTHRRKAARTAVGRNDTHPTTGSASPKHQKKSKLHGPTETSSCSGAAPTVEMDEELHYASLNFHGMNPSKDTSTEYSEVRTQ", "assay": "flow cytometry on REH subline expressing CD33^FL"}, "[2]": {"molecular_target": "T2, ΔE2 version of human CD33 (CD33^ΔE2) expressed on cells (human, UniProt P20138 1-364)", "T2 construct": "Expressed on engineered REH sublines; also called CD33ΔE2 isoform", "assay": "flow cytometry on REH subline expressing CD33^ΔE2"}, "[3]": {"molecular_target": "T3, extracellular domain of CD33^ΔE2 with a 6-histidine-avidin tag (hsCD33_ΔE2-His-Avi) (human)", "T3 construct": "The Biacore text says only 'the corresponding soluble ectodomains'; also called soluble CD33^ΔE2 ectodomain; MDT000239", "T3 chain": "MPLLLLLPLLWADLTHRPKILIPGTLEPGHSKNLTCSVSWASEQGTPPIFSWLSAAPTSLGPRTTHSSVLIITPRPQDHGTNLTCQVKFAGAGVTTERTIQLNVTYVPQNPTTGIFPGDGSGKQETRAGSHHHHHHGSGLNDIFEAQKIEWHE", "assay": "Biacore SPR, purified antibody and corresponding soluble ectodomain", "description": "(§1) FIGS. 4A-4C illustrate the expression (FIGS. 4A, 4B) and characterization of two CD33^FL specific (8F5 and 5D12) and one CD33^ΔE2 specific (12B12) antibodies. Affinities for these antibodies (shown in FIG. 4C) were characterized by Biacore (Biacore, A&G Pharmaceutical, Inc., Columbia, MD) using purified antibodies and the corresponding soluble ectodomains."}, "[4]": {"molecular_target": "T2, ΔE2 version of human CD33 (CD33^ΔE2) …", "assay": "flow cytometry on engineered REH cells"}, "[5]": {"molecular_target": "T1, human full-length CD33 (CD33^FL) …", "assay": "flow cytometry on REH cells expressing CD33^FL"}, "[6]": {"molecular_target": "T2, ΔE2 version of human CD33 (CD33^ΔE2) …", "assay": "flow cytometry on REH cells expressing CD33^ΔE2", "description": "FIG. 6 illustrates flow cytometry binding assay characterization of CD33^ΔE2 -specific CD33 antibodies. […] Antibodies specific for CD33^ΔE2 have not previously been described reliably in the literature. The herein-described CD33^ΔE2 specific antibodies will be useful, including for determining expression profiles of this isoform across healthy and diseased individuals. REH=human CD33^neg lymphoid cells."}, "[7]": {"molecular_target": "T1, human full-length CD33 (CD33^FL) …", "assay": "flow cytometry on REH cells, legend of FIG. 7"}, "[8]": {"molecular_target": "T4, extracellular domain of CD33^FL with a 6-histidine-avidin tag (hsCD33-His-Avi) (human, UniProt P20138 18-256)", "T4 construct": "The Biacore text says only 'the corresponding soluble ectodomains'; it includes the native signal peptide and the His-Avi tag, and no limits are stated on it; also called soluble CD33^FL ectodomain; MDT000235", "assay": "Biacore SPR, value quoted from FIG. 4C", "description": "as §1"}, "[9]": {"molecular_target": "T4, extracellular domain of CD33^FL with a …", "assay": "Biacore SPR, purified antibody and corresponding soluble ectodomain", "description": "as §1"}}, "data": [{"binder": "anti-CD33 antibody 2D5 (antibody, V domains shown, the antibody was raised in mice) VH: QVQLQQSGAELVRPGASVTLSCKASGYTFTDYDMHWVKQTPVHGLEWIGAIDPETGGTAYNQNFKGKAILTVDKSSRIAYMELRSLTSEDSAVFYCTSDYDYFGVWGTGTTVTVSS VL: DIVMTQSQKFMSTSVGDRVSVTCKASQNVGTNVVWYHKKPGQSPKGLIYSASDRYSGVPDRFTGSGSGTDFTLTINNVQSEDLAEYFCQQYNIYPYTFGGGTKLEIKR", "values": [{"measurement": "binding result", "setting": "[1]", "result": "binds"}, {"measurement": "binding result", "setting": "[2]", "result": "binds"}]}, {"binder": "anti-CD33 antibody 12B12 (antibody, V domains shown, Mouse IgG2b) VH: EVQLQQSGTVLARPGASVKMSCKASGYTFTTYWMHWIKQSPGQGLEWIGAIYPGNSDTSYNQKFKGKAKLTAVTSASTAYMELSSLTNEDSAVYYCEIYDGYHFIYWGQGTTLTVSS VL: DIVMTQAAFSNPVTLGTSASISCRSSQSLLHSNGITYLYWYLQKPGQSPQLLIYQMSNLASGVPDRFSSSGSGTDFTLRISRVEAEDVGVYYCAQNLELPPTFGGGTKLEIKR", "values": [{"measurement": "Kd", "setting": "[3]", "result": 8, "unit": "nM"}]}, {"binder": "anti-CD33 antibody 11D5 (antibody, V domains shown, Mouse IgG1) VH: EVQFQQSETVLARPGTSVKLSCKASGYTFTSYWMHWLKQRPGQGLEWIGAIYCGNSDTSYNQKFKGKAKLTAVTSATTAYMELSSLTNEDSAVYYCKIYDGYHFDYWGQGTTLTVSS VL: DIVMTQAAFSNPVTLGTSASISCRSNKSLLHSNGITYLYWYLQKPGQSPQLLIYQMSNLASGVPDRFSSSGSGTDFTLRISRVEAEDVGVYYCAQNLELPPTFGGGTKLEIKR", "values": [{"measurement": "binding result", "setting": "[4]", "result": "binds"}]}, {"binder": "anti-CD33 antibody 1H7 (antibody, V domains shown, Raised in mice; The entries include a secretion leader; also called CD33PAN antibody) VH: QVQLQQSGAELVKPGASVKISCKASGYAFSNYWMNWVKQRPGKGLEWIGQINPGDGDTNYNGKFKGKATLTADKSSSTAYMQLSSLTSEDSAVYFCAREDRDYFDYWGQGTTLTVSS VL: DIQMTQTTSSLSASLGDRVTISCRASQDINYYLNWYQQKPDGTVKLLIYYSSRLHSGVPSRFSGSGSGTDFSLTISNLEQEDIATYFCQQDDALPYTFGGGTKLEIKR", "values": [{"measurement": "binding result", "setting": "[5]", "result": "binds"}, {"measurement": "binding result", "setting": "[6]", "result": "binds"}]}, {"binder": "anti-CD33 antibody 11D11 (antibody, V domains shown, Mouse IgG1) VH: EVNLVESGGGLVQSGRSLRLSCATSGFTFSDFYMEWVRQAPGKGLEWIAASRNKANDYTTEYKASVKGRFIVSRDTSQSILYLQMNALRAEDTAIYYCTRDTGPMDYWGQGTSVTVSS VL: DIQMTQTTSSLSASLGDRVTISCRASQDISNYLNWYQQKPDGTVKLLIYYTSRLHSGVPSRFSGSGSGTDYSLTISNLEQEDIATYFCQQGSTLPPTFGGGTKLEIKR", "values": [{"measurement": "binding result", "setting": "[6]", "result": "binds"}]}, {"binder": "anti-CD33 antibody 5E10.7 (antibody, V domains shown, Mouse IgG1) VH: QVQLQQPGAEFVKPGASVKLSCKASGYTFTSYWMQWVKQRPGQGLEWIGEIDSSDSYTNYNQKFKGMATLTVDRSSSTAYMQLSSLTSEDSAVYYCARSRPYDWFPYWGQGTLVTVST VL: DIKMTQSPSSIYASLGERVTITCKASQDIKSYLSWYQQKPRKSPKTLIYYATTLADGVPSRFSGSGSGQDFSLTISSLESDDTATYYCLHHSESPWTFGGGTKLEIKR", "values": [{"measurement": "binding result", "setting": "[7]", "result": "binds"}, {"measurement": "binding result", "setting": "[6]", "result": "binds"}]}, {"binder": "anti-CD33 antibody 5D12 (antibody, V domains shown, Mouse IgG2a) VH: QVQLQQSGAEVVKPGASVKISCRASGYAFSNYWMNWVKQRPGKGLEWIGQIYPGNFNTDYNGQFKGKATLTVDKSSNTAYMQLSSLTSEDSAVYFCARFFDFGAYFTLDYWGQGTSVTVSS VL: DIKMTQSPSSIYASLGERVTINCKASQDIKSYLSWYQQKPWKSPKTLIYYATTLADGVPSRFSGSGSGQDYSLTISSLESDDTATYYCLHHGESPWTFGEGTKLEIKR", "values": [{"measurement": "Kd", "setting": "[8]", "result": 0.122, "unit": "nM"}, {"measurement": "Kd", "setting": "[9]", "result": 0.112, "unit": "nM"}]}, {"binder": "anti-CD33 antibody 7E7 (antibody, V domains shown, Mouse IgG1) VH: QVTLKESGPGILQPSQTLSLTCSFSGFSLNSYGMGIGWIRQPSGKGLEWLAHIWWDDNKYYKPDLKSRLTVSKDTSKNQVFLKIANVDTTDTATYFCARDGGYSLFAYWGQGTLVTVSV VL: not shown", "values": [{"measurement": "binding result", "setting": "[5]", "result": "no binding"}, {"measurement": "binding result", "setting": "[6]", "result": "binds"}]}, {"binder": "anti-CD33 antibody 8F5 (antibody, mouse IgG2a, kappa, V domains shown, Mouse IgG2a) VH: EVKLVESGGGLVQPGGSLKLSCAASGFTFSDFYMYWVRQTPEKRLEWVAFISNAGVTTYYPDTVEGRFTISRDNAKNTLYLQMSRLMSEDTAMYYCTKSDYDGAWFPYWGQGTLVTVSA VL: DIVMSQSPSSLPVSVGEKVTLSCKSSQSLLYSRNQYNFLAWYQQRPGQSPKLLIYWASTRESGVPDRFTGSGSGTDFTLTISSVKAEDLAVYYCQQYYSYPYTFGGGTKLEIKR", "values": [{"measurement": "Kd", "setting": "[9]", "result": 8, "unit": "nM"}]}]}
